Experimental data reported in patent US20230235070A1 (Pfizer, published 2023).

Biological target: T1, TNF-like ligand 1A (TL1A) (human, UniProt O95150 72-251)
T1 construct: Endogenous protein measured in patients' serum and biopsies by immunoprecipitation LC-MS/MS; also called TNFSF15; soluble TL1A
T1 sequence (looked up): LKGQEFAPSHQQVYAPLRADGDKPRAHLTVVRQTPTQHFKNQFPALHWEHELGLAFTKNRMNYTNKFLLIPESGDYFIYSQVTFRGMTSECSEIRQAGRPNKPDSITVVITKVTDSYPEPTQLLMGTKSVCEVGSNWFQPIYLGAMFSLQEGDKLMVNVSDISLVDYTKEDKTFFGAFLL
Experiment: total soluble TL1A in serum of treated participants, immunoprecipitation LC-MS/MS (in vivo target engagement)
Procedure: An Immunoprecipitation LC-MS/MS assay has been developed and validated to measure total soluble TL1A in human serum. Total soluble TL1A is isolated from human serum using immuno-enrichment technology. The samples are incubated and shaken with a biotinylated anti-TL1A capture reagent at 4° C. overnight. Dynabeads MyOne C1 streptavidin-coupled magnetic beads are then added to each sample and incubated at room temperature for 1 h to extract TL1A bound to biotinylated capture antibody. The beads are then washed three times, followed by elution of total TL1A from the beads under acidic conditions. After addition of the extended sequence stable isotope labeled peptide (internal standard) to each sample, trypsin digestion is performed at 37° C. overnight. All sample processing is performed in a 96-well format on an automated liquid handling robot (Microlab STAR, Hamilton, Bonaduz, Switzerland). A 120 μL of the sample extract is injected onto a three-dimensional Dionex Ultimate 3000 nano-LC system, comprising a conventional flow immunoaffinity capture with custom 2.1 mm ID anti-peptide antibody column, and elution to 300 μm ID C18 trap column and 75 μm ID nano LC analytical column. […] One selected reaction monitoring transition for the signature peptide is used to quantify TL1A in the positive ion mode, and all data are normalized to the internal standard response. […]

binding result: binds
B1: PF-06480605 (antibody, human IgG1, kappa, V domains shown)
VH: QVQLVQSGAEVKKPGASVKVSCKASGYDFTYYGISWVRQAPGQGLEWMGWISTYNGNTHYARMLQGRVTMTTDTSTRTAYMELRSLRSDDTAVYYCARENYYGSGAYRGGMDVWGQGTTVTVSS
VL: EIVLTQSPATLSLSPGERATLSCRASQSVSSYLAWYQQKPGQAPRLLIYDASNRATGIPARFSGSGSGTDFTLTISSLEPEDFAVYYCQQRSNWPWTFGQGTKVEIKR
notes: The embodiments and claims number differently (1 = VH, 2 = VL, 9 = HC, 10 = LC); also called anti-TL1A
